1 molecule from US7012128B2, “Interaction between cyclin D1 and steroid receptor co-activators and uses thereof in assays” (TopoTarget UK Limited, priority 1998, dated 2006) can be followed below.

Common to all, as to format: cell-based
In one assay the test system is wild type ER. The experiment in a line: ERE-TATA-luciferase transactivation of wild type ER in COS-7 cells. Particulars: COS-7, 3 μg SRC1-DN, 10 nM ligand. As to the method:
FIG. 1. Mapping of the region of cyclin D1 required for ER-mediated transactivation. • (A) The effect of cyclin D1 deletion mutants on ER activation in the presence of ligand. The cyclin D1 derivatives used in this study are shown in the left panel; right side of Figure represents the relative capacity of the mutants to potentiate ERE-dependent transcription. ER-negative COS-7 cells were transfected with expression vectors for wild type ER (200 ng), cyclin D1 or cyclin D1 mutants (2.5 μg), an internal control §-galactosidase plasmid (0.5 μg) and an ERE-TATA-luciferase reporter (3 μg). The effect on ER transactivation of wild type cyclin D1 was set to 100%. These studies were performed in three separate experiments and expressed as mean values with standard deviation less then […]. The alignment of leucine-rich motif of ER with D-type cyclins are shown on the bottom; the leucine-rich motif in cyclin D1 is indicated as a dark box. The identifiers for the sequences shown are as follows: Cyclin D1 (SEQ ID NO:11), Estrogen receptor (SEQ ID NO:12), the Cyclin D2 (SEQ ID NO:13), and the Cyclin D3 (SEQ ID NO:14). • (B) ER activation by D-type cyclins, cyclin D1 L254/255A point mutant (D1-LALA) and SRC-1 in the presence of ligand. COS-7 cells were transfected with D-type cyclin expression vectors, cyclin D1 Leucine-to-Alanine point mutant (D1-LALA) or SRC-1 expression vector together with wild type ER expression vector, an ERE-TATA-luciferase reporter plasmid and the internal control β-galactosidase construct. Data are expressed as relative luciferase activity compared with basal ERE-luciferase activity of wild type ER and are normalized for transfection efficiencies.
FIG. 3. Role of coactivators in cyclin D1—induced transactivation. • (A) Effect of a dominant negative form of SRC-1 (SRC1-DN) on ER transactivation. SRC1-DN encoding amino acids 1245-1441 of SRC-1 (1, 2.5 and 5 μg) was introduced by transient transfection together with wild type ER (200 ng) and was tested for its ability to modulate ERE-dependent transcription. • (B) Effect of SRCI-DN on SRC-1 and TIF 2 mediated ER transactivation. SRC-1 (3 μg) or TIF-2 (3 μg) were transfected with SRC1-DN (3 μg) and tested for ER transactivation. • (C) Effect of SRC1-DN on cyclin D1-induced transactivation of ER 1-535 mutant. Cyclin D1 was cotransfected with SRC1-DN (1, 2.5, 5 μg) and tested for its effect on an ER harboring a deletion of coactivator binding site in helix 12 (ER 1-535). • (D) Effect of SRC1-DN on cyclin D1-induced transactivation of ER L543/544A mutant. Cyclin D1 and SRC1-DN (1, 2.5, 5 gg) were transfected and tested for the activity of ER helix 12 point mutant (ER L543/544A). The transient transfections (A-C) were performed in COS-7 cells, which were maintained in DMEM with 10 nM ligand. The relative activity was calculated by normalizing to the internal control and was divided by luciferase activity of ER (mutant) in the presence of ligand. The transfection for each set of conditions were done at least in four independent experiments and expressed as average ±SD.
To study how cyclin D1 activates ER, cyclin D1 deletion mutants were tested for their effect on ER-transactivation. COS-7 cells were transfected with cyclin D1 mutants, together with ER and a luciferase reporter gene construct driven by a minimal TATA promoter linked to an estrogen response element (ERE). […] This part of the protein is not involved in CDK interaction and is poorly conserved among the different cyclins. […] To test the relevance of this leucine-rich domain of cyclin D1 in ER activation, a cyclin D1 mutant was constructed in which leucines 254 and 255 were mutated to alanines (D1 L254/255A). This mutation in cyclin D1 is similar to the mutation in ER (ER L543/544A) that interferes with coactivator binding to AF-2 (Danielian et al., 1992). […]

Assay [1] relates to ER 1-535 and ER L543/544A mutants. The experiment in a line: ERE-TATA-luciferase transactivation of AF-2 mutant ERs in COS-7 cells. The conditions noted are these: COS-7, 1, 2.5, 5 μg SRC1-DN, 10 nM ligand. On the procedure: FIG. 2. Effect of cyclin D1 on helix 12 mutants of ER. The effect of cyclin D1 on ER mutants was tested in COS-7 cells (A, B) and in U2-OS cells (C, D) in the presence of ligand. An ERE-TATA-luciferase reporter construct was used in transient transfections together with cyclin D1 and ER 1-535 (A, C) or ER L543/544A mutants (B, D). β-Galactosidase served as an internal control. The reporter activity was determined both in the presence (black bars) and in the absence (white bars) of 10 nM 17β-estradiol. The relative luciferase activity was calculated by normalizing to the b-galactosidase activity. The relative reporter activity of wild type ER in the presence of ligand was used as a reference and set at 100%. […] The transfection were performed in at least five separate experiments and expressed as average ±SD.
FIG. 3. Role of coactivators in cyclin D1—induced transactivation. • (A) Effect of a dominant negative form of SRC-1 (SRC1-DN) on ER transactivation. […] The relative activity was calculated by normalizing to the internal control and was divided by luciferase activity of ER (mutant) in the presence of ligand. The transfection for each set of conditions were done at least in four independent experiments and expressed as average ±SD. […]

Assay [2] addresses E2F-1 transcription factor (Homo sapiens, UniProt Q01094). Description: Effect on E2F-1 transcription factor (data not shown).

E2F-1 transcription factor, sequence (Q01094 whole entry): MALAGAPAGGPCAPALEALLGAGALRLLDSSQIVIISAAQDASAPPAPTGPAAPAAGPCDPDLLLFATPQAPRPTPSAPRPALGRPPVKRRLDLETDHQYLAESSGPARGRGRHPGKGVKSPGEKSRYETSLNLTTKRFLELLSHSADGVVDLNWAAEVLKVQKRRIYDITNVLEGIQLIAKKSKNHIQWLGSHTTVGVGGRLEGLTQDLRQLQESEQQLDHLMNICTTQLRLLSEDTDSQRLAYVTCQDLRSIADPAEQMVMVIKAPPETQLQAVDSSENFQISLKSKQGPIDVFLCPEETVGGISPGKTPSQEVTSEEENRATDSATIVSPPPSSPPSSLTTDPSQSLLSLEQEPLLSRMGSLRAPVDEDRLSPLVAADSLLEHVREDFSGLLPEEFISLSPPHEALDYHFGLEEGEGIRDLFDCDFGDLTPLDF

B1: SRC1-DN: dominant negative mutant of SRC-1 encoding amino acids 1245-1441 of SRC-1 (protein, UniProt Q15788 1245-1441, looked up, fragment)
chain: FAPSLSPGSSMVPMPIPPPQSSLLQQTPPASGYQSPDMKAWQQGAIGNNNVFSQAVQNQPTPAQPGVYNNMSITVSMAGGNTNVQNMNPMMAQMQMSSLQMPGMNTVCPEQINDPALRHTGLYCNQLSSTDLLKTEADGTQQVQQVQVFADVQCTVNLVGGDPYLNQPGPLGTQKPTSGPQTPQAQQKSLLQQLLTE
On to B1, for which, in the assay on wild type ER, the “effect on SRC-1 and TIF2 mediated ER transactivation” value is given as “inhibited”. Further, the “effect on cyclin D1-induced activation of the ER AF-2 mutants” value in assay [1] is given as “markedly repressed”. Also, in assay [2], the “effect on E2F-1 transcription factor” value was “inactive”.
